# Substitutions are numbered along the chain they refer to.
# B1: E08 (antibody, V domains shown)
# VH: EVQLVESGGGLIQPGGSLRLSCAASGFTVSSNYMSWVRQAPGKGLEWVSVIYSGGSTYYADSVKGRFTISRDNSKNTLYLQMNSLRAEDTAVYYCARDFGVGAVDYWGQGTLVTVSS
# VL: QSVLTQPASVSGSPGQSITISCTGTSSDVGGYNFVSWYQQHPGKAPKLMIYDVTNRPSGVSNRFSGSKSGNTASLTISGLQAEDEADYYCSSYTDSSTLDVVFGGGTKVTVL
# B2: A01 (antibody, V domains shown)
# VH: QVQLVQSGAEVKQPGASVKVSCKASGGTFSSYAISWVRQAPGQGLEWMGGIIPIFGTANYAQKFQGRVTITADESTSTAYMELSSLRSEDTAVYYCATTTMVRGVIMYYFDYWGQGTLVTVSS
# VL: QSALTQPPSASGSPGQSVTISCTGTSSDVGAYNDVSWYQHHPGKAPKLIIYEVNHRPSGVPDRFSGSKSDNTASLTISGLQAEDEADYYCSSYTPSNTPLVFGSGTKVTVL
# notes: fully human antibody of an IgG class, detected with anti-human IgG (gamma-chain specific); also called ErbB3-A01; anti-ErbB3 A01
# B3: D04 (antibody, V domains shown)
# VH: EVQLLESGGGLVKPGGSLRLSCAASGFTFSSYSMNWVRQAPGKGLEWVSSISSSSSYIYYADSVKGRFTISRDNAKNSLYLQMNSLRAEDTAVYYCARGFGEDLFDYWGQGTLVTVSS
# VL: QSVLTQPPSVSVAPGKTARITCGGNNIGSKSVHWYQQKPGQAPLLVIYYDTDRPSGIPERFSGSNSENTATLTISGVEAGDEADYYCQVWDIGSDQVVFGTGTKVTVL
# B4: D10 (antibody, V domains shown)
# VH: QVQLVESGGGLVQPGGSLRLACAASGFTFSNYEMNWVRQAPGKGLEWVATISDDSVYKYYADSVKGRFTISRDNSKALFYLQMDSLTFEDTAIYYCARDPGGDSLGYFQHWGQGTLVTVSS
# VL: QAGLTQPPSASASPGDSVTLTCTLSSDHSDYKVDWYQQRPGKGPRFVMRVGTGGIVGVKGDGIPDRFSVWGSGPNRYLTIKNIQEEDESDYHCGSDHGSGNNYVYVFGGGTKLTVL
# B5: B01 (antibody, V domains shown)
# VH: B4 VH
# VL: QAGLTQPPSASASPGDSVTLTCTLSSDHSDYKVDWYQQRPGKGPRFVMRVGTGGIVGVKVSNRFSGSKSGNTASLTISGLQAEDEADYYCSSYTDSSTLDVVFGGGTKLTVL
# B6: D01 (antibody, V domains shown)
# VH: EVQLVQSGAEVRKPGASVKVSCKASQYTFTNYHIHWVRQVPGQGLEWMAMINPSNGNTNYGQRFQDRVTLTRDTSTSTAYMELSSLRSEDTAVYLCARDGLTFGDLLAYWGQGTLVTVSS
# VL: QSVLTQPPSASGTPGQSVTISCSGSSSNIGGNTVNWYQQFPGTAPKLLMYINNLRPAGVPDRFSGSKSGTSASLVISGLQSEDEADYYCASWDDSLSGLVFGGGTKLTVL
# B7: A02 (antibody, V domains shown)
# VH: EVQLVQSGAEVKKPGASVTVSCKPSGYAFTDYYIHWVRQAAGQGLEWMGWVDPRSGATVYAQNFQGRVTMTRDRSSSTVYMDLSRVTSDDTALYFCGRDNYGIFDYWGQGTLVTVSS
# VL: QPVLTQPPSVSAAPGQRVTISCSGSSSNIGNNYLSWYQQLPGTAPKLLIYDDTKRPSGIPDRFSGSKSGTSATLGITGLQTGDEADYYCGTWDGSLDAEVFGTGTKLTVL
# notes: also called ErbB3-A02; anti-ErbB3 A02
# B8: A08 (antibody, V domains shown)
# VH: QMQLVQSGADVKKPGASVRVSCKTSGYTFTSYDINWVRQAPGQGLEWMGWMNPDTGNTAYVQKFQGRVTVTRDTSINTVYMELSGLRSEDTAVYYCAKSGGSSSYDAFDIWGQGTMVTVSS
# VL: QSVLTQPPSVSVAPGNTATITCGGDNIGEKTVHWYQQRPGQAPALVIYYDSDRPSGIPERFSGSNSGNTATLTISRVEAGDEADYYCQVWDSSSDHVVFGGGTKLTVL
# notes: also called ErbB3-A08
# B9: A04 (antibody, V domains shown)
# VH: QVQLQQSGPGLVQPSQTLSLTCDISGDSVSSTGAAWNWIRQSPSRGLEWLGRTYYRSKWYNDYALSVRSRITITPDTSKNQFSLQLNSVTPEDTAVYYCVRDGDVGLDAFDIWGQGTMVTVSS
# VL: QTVVTQAPSVSVAPGQTARITCGGNNIGSKSVHWYQQKPGQAPVLVVYDDSDRPSGIPERFSGSNSGNTATLTISRVEAGDEADYYCQVWDSTSDHVVFGGGTKVTVL
# notes: also called ErbB3-A04; anti-ErbB3 A04
# B10: A11 (antibody, V domains shown)
# VH: QVQLVQSGRGLVQPGRSLRLSCAASGFTFDEYAMHWVRHAPGKGLEWVAGMSWNGGGIGYADSVKGRFTISRDNSKNTLYLQMNSLRAEDTAVYYCAREGAGGSYPTDAFDIWGQGTTVTVSS
# VL: IVLTQSPSSLSASVGDRVTITCQASHDISNYLTWYQHRPGRAPKLLIFDASRLETGVPSRFSGYGSGKDFTFTISGLQPEDFATYYCQHYADLPSFGQGTKLEIK
# notes: also called ErbB3-A11
# B11: B11 (antibody, V domains shown)
# VH: B10 VH
# VL: EIVLTQSPSSLSASVGDRVTITCQASHDISNYLTWYQHRPGRAPKLLIFDASRLETGVPSRFSGYGSGKDFTFTISGLQPEDFATYYCQHYADLPSFGQGTKVDIK
# B12: D07 (antibody, V domains shown)
# VH: QVQLVESGGGLVQPGGSLRLSCVASGFTFSSYWMSWVRQAPGKGLEWVAYINLDGSEKDYVDSVKGRFTISRDNAKNSLYLQMNSLRAEDTALYYCAKAYSSSWLLSGGMDVWGQGTTVTVSS
# VL: SYELTQPASVSGSPGQSITISCTGTSSDVGNYNSVSWYQQHPGKAPELMIYDVNNRPSGVSNRFSGSKSGNTASLTISGLQAEDEADYYCSSYTSSSTLVFGGGTQLTVLG
# B13: B08 (antibody, V domains shown)
# VH: QVQLVQSGAEVKKPGASVKVSCKASGYTFTSHYGISWVRQAPGQGLEWMGSITPHNGKTNYVQMFQGRVTMTTDTSTRTVYMELRNLRSDDTAVYYCARDWNFADFDYWGQGTLVTVSS
# VL: QSVLTQPPSASGSPGQSVTISCTGTSSDVGGYNFVSWYQQHPGKAPKLMIYDVTNRPSGVSNRFSGSKSGNTASLTISGLQAEDEADYYCSSYTSSSTPYVFGTGTKLTVL
# B14: D08 (antibody, V domains shown)
# VH: QVQLVESGGGLVKPGGSLRLSCAASGFTSSSYVLNWVRQAPGKGLEWVSSISSRGSYIYYADSVKGRFTISRDNAKNSLYLQMNSLRAEDTAVYYCARERAGFSPVNAFDIWGQGTMVTVSS
# VL: QSVLTQPASVSGSPGQSITISCTGSSSDVGSYNLVSWYQQHPGKAPKLMIYDDNRRPSGISTRFSGSKSGNTASLTVSGLQAEDEAYYYCSSYAGRNNDVIFGGGTQLTVL
# B15: D03 (antibody, V domains shown)
# VH: QVQLVESGGGLVKPGGSLRLSCAASGFTFSSYSMNWVRQAPGKGLEWVSSISSSSSYIYYADSVKGRFTISRDNSKNTLYLQMNSLRDEDTAVYYCAREILTGYYPDAFDMWGQGTMVTVSS
# VL: SYELMQPPSVSVAPGKTARITCGGNNIGSKSVHWYQQKPGQAPVVVIYYDSDRPSGIPERFSGSNSGNTATLTISRVEAGDEADYYCQVWDSSSDHYVFGTGTKLTVL
# B16: C03 (antibody, V domains shown)
# VH: QVQLVQSGAEVKKPGASVKVSCKASGYTFTSYGISWVRQAPGQGLEWMGWISAYNGNTNYAQKLQGRVTMTTDTSTSTAYMELRSLRSDDTAVYYCAREAYAWGAFDIWGQGTMVTVSS
# VL: B15 VL with V45L, S94R, Y97A, T101G
# Target: T1, endogenous human ErbB3 expressed on human cancer cells (MCF7; A431NS) (human, UniProt P21860 20-1342)
# T1 construct: whole, on cells; also called Her3; HER3/c-ErbB3
# T1 sequence (P21860 20-1342): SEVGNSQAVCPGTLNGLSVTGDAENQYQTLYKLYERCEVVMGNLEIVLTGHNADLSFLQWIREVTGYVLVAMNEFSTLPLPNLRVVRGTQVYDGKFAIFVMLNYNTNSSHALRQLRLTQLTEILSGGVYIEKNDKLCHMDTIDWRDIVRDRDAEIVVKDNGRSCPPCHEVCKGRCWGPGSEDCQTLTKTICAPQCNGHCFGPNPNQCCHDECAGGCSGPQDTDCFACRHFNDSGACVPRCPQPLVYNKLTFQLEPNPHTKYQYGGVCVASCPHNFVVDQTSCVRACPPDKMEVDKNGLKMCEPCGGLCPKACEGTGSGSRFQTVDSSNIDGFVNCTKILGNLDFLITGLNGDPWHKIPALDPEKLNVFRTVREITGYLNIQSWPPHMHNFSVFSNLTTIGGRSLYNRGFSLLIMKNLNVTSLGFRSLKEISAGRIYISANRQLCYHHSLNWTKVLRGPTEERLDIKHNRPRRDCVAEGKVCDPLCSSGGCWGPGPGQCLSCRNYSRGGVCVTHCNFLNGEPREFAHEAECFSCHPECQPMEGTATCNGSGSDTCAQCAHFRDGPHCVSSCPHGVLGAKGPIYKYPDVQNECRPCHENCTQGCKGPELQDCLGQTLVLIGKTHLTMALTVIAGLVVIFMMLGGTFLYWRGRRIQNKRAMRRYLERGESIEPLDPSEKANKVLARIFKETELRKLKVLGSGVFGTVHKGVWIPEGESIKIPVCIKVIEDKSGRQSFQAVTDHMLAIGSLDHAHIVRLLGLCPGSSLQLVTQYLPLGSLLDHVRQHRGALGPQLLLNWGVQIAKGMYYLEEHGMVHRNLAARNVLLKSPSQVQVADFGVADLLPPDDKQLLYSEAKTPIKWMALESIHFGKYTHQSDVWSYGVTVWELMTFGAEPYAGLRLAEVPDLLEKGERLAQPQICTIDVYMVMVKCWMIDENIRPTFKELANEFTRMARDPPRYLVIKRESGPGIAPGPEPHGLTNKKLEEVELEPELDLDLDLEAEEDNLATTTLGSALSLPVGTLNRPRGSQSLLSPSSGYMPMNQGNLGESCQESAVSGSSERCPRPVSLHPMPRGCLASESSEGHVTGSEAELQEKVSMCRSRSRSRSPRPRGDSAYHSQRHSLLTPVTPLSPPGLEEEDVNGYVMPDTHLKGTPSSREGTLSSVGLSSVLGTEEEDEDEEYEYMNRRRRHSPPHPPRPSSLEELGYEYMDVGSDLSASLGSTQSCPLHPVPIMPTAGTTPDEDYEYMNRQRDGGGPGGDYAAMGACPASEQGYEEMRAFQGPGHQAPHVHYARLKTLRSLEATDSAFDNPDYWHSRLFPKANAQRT
# Assay: flow cytometry on MCF7 cells
# Description: This example illustrates the binding of anti-ErbB3 antibodies to endogenous human ErbB3 expressed on human cancer cells, as assayed by flow cytometry. EC₅₀ values for antibodies were determined as follows.
# Her3 expressing MCF7 cells were harvested with enzyme-free Cell Dissociation Buffer (GIBCO) and transferred to V-Bottom 96 well-plates (50,000 cells/well). Cells were incubated on ice for 30 min with serial dilutions of anti-ErbB3 antibodies in FACS buffer (PBS+2% FBS)+NaN₃. After 2 washes in FACS buffer, a 1:1000 dilution of Phycoerythrin conjugated anti-Human IgG (γ-chain specific) was added and incubated for 30 min. Following a final wash, fluorescence intensity was measured on an Intellicyt High Throughput Flow Cytometer (HTFC). Data were analyzed using Graphpad Prism software using non-linear regression fit. Data points are shown as the median fluorescence intensity (MFI) of positively labeled cells +/− Standard Error. EC₅₀ values are reported as the concentration of antibody to achieve 50% of maximal ErbB3 antibodies binding to ErbB3 expressing cells.
row,Binder,EC50 [nM]
1,B1,3.07
2,B2,5.71
3,B3,0.0242
4,B4,2.01
5,B5,2.65
6,B6,4.03
7,B7,1.22
8,B8,0.747
9,B9,0.163
10,B10,0.219
11,B11,0.049
12,B12,0.933
13,B13,0.0921
14,B14,1.93
15,B15,5.97
16,B16,0.427

# Target: T1, endogenous human ErbB3 expressed on …
# Assay: cell-based or functional assay
Binder,"IC50, inhibition of ERK1/2 phosphorylation induced by NRG1 beta-1 (phospho-p44/42 MAPK ELISA, MCF7) [nM]","IC50, inhibition of ErbB3 phosphorylation induced by Heregulin (phospho-HER3 ELISA, MCF7) [nM]","IC50, inhibition of NRG1-beta 1 induced MCF7 proliferation (MTT) [nM]"
B2,0.46,0.46,10.6
B7,0.12,0.12,2.8
B8,–,–,12.8
B9,0.13,0.13,–
